B1: hEP: human apoE dual-domain peptide: helix 4 of N-terminal domain plus major lipid-binding region; expressed in bacteria (protein)
peptide: EELRVRLASHLRKLRKRLLRDADDLQKRLAVYEEQAQQIRLQAEAFQARLKSWFEPLVEDM

Experiments:
[1] = system: JFH1 HCVcc; test: HCVcc binding assay (real-time PCR of vRNA, Huh7.5.1 cells); assay type: cell-based, Hepatitis C virus; conditions: 2.7 μM, 2 hours at 4° C., relative to scrambled peptide
Protocol: (§1) FIGS. 5A-5D. hEP inhibits HCV entry at the attachment step. (A) HCVcc-luc was first mixed with either scrambled peptide or hEP-2 (20 μg/ml) for one hour at room temperature. In Group 1, mixed virus was directly added to Huh7.5.1 cells, whereas in Group 2, virus was purified through ultracentrifuge at 28,000×g for 4 hours in order to remove peptide, and then used to infect Huh7.5.1 cells. **p<0.005. (B) The kinetics of hEP- and bafilomycin A1-mediated inhibition were determined by time-of-addition assays, as described in the examples section. Fitted lines represent sigmoidal time-dependent curves (mean of n=3; error bars, s.d.). […] Heparin (200 μg/ml), anti-CD81 monoclonal antibody (5 μg/ml), hEP (20 μg/ml), or bafilomycin A1 (10 nM) were present in the media either continuously, during the 4° C. incubation only (attachment), or during the 37° C. incubation phase only (post-attachment). % Inhibition was calculated as 100-percent infection relative to control infections containing DMSO or an isotype antibody control containing 0.01% sodium azide (for anti-CD81 only) (mean of n=3; error bars, s.d.). (D) The effects of hEP (2.7 μM) or scrambled peptide on HCV binding were determined as described in the examples section. Results were calculated as relative RNA copies with numbers obtained from the scrambled peptide treated wells set to 100 (mean of n=3; error bars, s.d.). **p<0.005. […]

[2] = system: CLDN1; test: Immunoblot of CLDN1; assay type: cell-based
Protocol: (§2) FIGS. 4A-4C. (A) Huh7.5.1 cells seeded in a 12-well plate were treated with hEP-2 (20 μg/ml) for indicated time periods. Cells were stained with a mouse IgG (istotype control) or the anti-LDLR antibody followed by flow cytometric analysis. An overlay of 7 histograms is presented and the Δ median fluorescence intensity (ΔMFI, LDLR stain minus isotype control stain) of each sample is indicated to the upper right of the figure. (B) Cells were stained with anti-CD81 antibody and analyzed similarly as in A. (C) Immunonblots of SR-BI, CLDN1, and OCLN in the presence of hEP-2 or scrambled peptide.

[3] = system: CD81; test: CD81 level on Huh7.5.1 cells by flow cytometry; assay type: cell-based
Protocol: as §2

[4] = system: Huh7.5.1 cells; test: Cytotoxicity/cell viability assay (CellTiter-Glo); assay type: cell-based; conditions: 48 hours; hEP up to 100 μg/ml (~14 μM)
Protocol: FIGS. 1A-1C. A human apoE derived peptide (hEP) suppresses HCV infection. (A) Schematic illustration of apoE protein domains and the amino acid sequences of hEP and mEP peptides. The amino acid sequences shown are hEP-1 (SEQ ID NO: 6) and mEP (SEQ ID NO: 20). (B) Dose dependent inhibition of HCVcc infection by hEP. Huh7.5.1 cells were infected with JFH-1 HCVcc-Luc (MOI˜0.5) in the presence of hEP or mEP for 2 hours. After removal of virus and peptides, cells were further incubated for 48 hours prior to luciferase assay. Data are presented as % inhibition relative to control infections in which cells were treated with DMSO (0%). Results are expressed as mean±standard deviation (s.d.) (n=3). (C). Huh7.5.1 cells were treated with hEP or DMSO at indicated doses for 48 hours. The effect of hEP on cell viability was measured by a CellTiter Glo assay kit.
Huh7.5.1 cells (10^5 per well) were treated with hEP or DMSO at various concentrations for 48 hours in 24-well plates. The numbers of viable cells in culture were determined using the CELLTITER-GLO® Cell Viability Luminescent Assay kit according to the manufacturer's instruction (Promega).

[5] = system: HCVcc-luc; test: Time-of-addition assay; assay type: cell-based, Hepatitis C virus; conditions: 20 μg/ml (2.7 μM)
Protocol: as §1

[6] = system: SR-BI; test: Immunoblot of SR-BI; assay type: cell-based
Protocol: as §2

[7] = system: HCVpp; test: HCVpp infection of Huh7.5.1 cells; assay type: cell-based, Hepatitis C virus (H77, JFH1, J6 envelope)
[8] = system: HIV-1
[9] = system: DENY (Thailand 16681); test: Dengue virus infection of Huh7.5.1 cells (TCID50); assay type: cell-based
[10] = system: HCVcc-luc; test: Anti-HCV activity after pre-incubation of the peptide in cell culture; assay type: cell-based, Hepatitis C virus; conditions: 20 μg/ml, 24 hours in culture before HCVcc-luc

| Molecule | Amount of viral RNA (vRNA) bound to cells [1] | Effect on level of CLDN1 [2] | Effect on level of CD81 [3] | Cytotoxicity (cell viability) [4] | Activity when added after the temperature shift (time of addition) [5] | Effect on level of SR-BI [6] | Effect on infectivity of HCVpp [7] | Effect on infectivity of HIV-1 [8] | Effect on infectivity of DENY [9] | Anti-HCV activity after being left in the culture [10] |
| --- | --- | --- | --- | --- | --- | --- | --- | --- | --- | --- |
| EELRVRLASHLRKLRKRLLRDADDLQKRLAVYEEQAQQIRLQAEAFQARLKSWFEPLVEDM [hEP-1] | decreased significantly | – | – | – | – | – | – | – | – | – |
| B1 | – | did not affect | did not affect | no cytotoxicity | disappeared almost completely | did not affect | did not affect the infectivity | did not affect the infectivity | did not affect the infectivity | largely retained |

— patent US10125184B2, “Apolipoprotein E polypeptides and their use” (priority 2011, dated 2018)
